What was measured:
[1] = biological target: T1, recombinant purified human IL-12 p70 (human, UniProt P29459 23-219); assay: competition ELISA on coated human IL-12, competitor of 0.8 µg/ml biotinylated 8E1, average
T1 construct: Disulfide-linked heterodimer of p35 and p40; also called hIL-12; Hu IL-12
T1 sequence 1: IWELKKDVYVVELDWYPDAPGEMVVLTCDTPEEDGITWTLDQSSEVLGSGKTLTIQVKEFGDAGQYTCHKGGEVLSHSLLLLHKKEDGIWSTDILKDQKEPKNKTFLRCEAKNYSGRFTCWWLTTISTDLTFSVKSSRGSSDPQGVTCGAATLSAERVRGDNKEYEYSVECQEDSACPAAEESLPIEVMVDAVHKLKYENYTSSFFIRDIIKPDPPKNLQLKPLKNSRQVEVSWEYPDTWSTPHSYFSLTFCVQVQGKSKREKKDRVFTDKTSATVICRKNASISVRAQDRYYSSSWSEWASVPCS
T1 sequence 2: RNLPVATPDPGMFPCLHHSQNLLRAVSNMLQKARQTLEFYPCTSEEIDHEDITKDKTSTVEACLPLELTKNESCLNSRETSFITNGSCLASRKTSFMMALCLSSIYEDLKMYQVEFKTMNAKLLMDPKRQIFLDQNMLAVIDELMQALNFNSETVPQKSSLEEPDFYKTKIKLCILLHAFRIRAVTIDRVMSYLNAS
Experimental: (§1) MaxiSorp ELISA plates (Nalge Nunc International) were coated overnight at 4° C. with 100 μl/well of 1.0 μg/ml human IL-12 in 0.2 M sodium carbonate-bicarbonate buffer, pH 9.4, washed with Wash Buffer (PBS containing 0.1% Tween 20), and blocked for 1 hr at room temperature with 300 μl/well of SuperBlock Blocking Buffer in TBS (Pierce Chemical Company). […] As isotype controls, 100 μl/well of 100 μg/ml mouse IgG 1/κ (MuFd79) or humanized IgG1/κ (HuFd79) monoclonal antibodies in ELISA buffer was used. As a no-competitor control, 100 μl/well of ELISA Buffer was used. After incubating the plates for 1 hr at room temperature, and washing with Wash Buffer, bound antibodies were detected using 100 μl/well of 1 μg/ml HRP-conjugated streptavidin (Pierce Chemical Company) in ELISA buffer. After incubating for 1 hr at room temperature, and washing with Wash Buffer, color development was performed by adding 100 μl/well of ABTS Peroxidase Substrate/Peroxidase Solution B (KPL, Inc.). After incubating for 5 min at room temperature, color development was stopped by adding 50 μl/well of 2% oxalic acid. Absorbance was read at 415 nm.
(§2) The affinity of 8E1.4, 8E1.5 and 8E1.6 to human IL-12 was analyzed by competition ELISA as described above.

[2] = biological target: T1, recombinant purified human IL-12 p70; assay: SPR (Biacore) according to Example 1.1.B
Experimental: The BIACORE assay (Biacore, Inc, Piscataway, N.J.) determines the affinity of antibodies with kinetic measurements of on-, off-rate constants. Binding of antibodies to recombinant purified human IL-12 p70 or recombinant purified human IL-12 p40 were determined by surface plasmon resonance-based measurements with a Biacore® 3000 instrument (Biacore® AB, Uppsala, Sweden) using running HBS-EP (10 mM HEPES [pH 7.4], 150 mM NaCl, 3 mM EDTA, and 0.005% surfactant P20) at 25° C. All chemicals were obtained from Biacore® AB (Uppsala, Sweden) or otherwise from a different source as described in the text. Approximately 5000 RU of goat anti-mouse IgG, (Fcγ), fragment specific polyclonal antibody (Pierce Biotechnology Inc, Rockford, Ill.) diluted in 10 mM sodium acetate (pH 4.5) was directly immobilized across a CM5 research grade biosensor chip using a standard amine coupling kit according to manufacturer's instructions and procedures at 25 μg/ml. Unreacted moieties on the biosensor surface were blocked with ethanolamine. Modified carboxymethyl dextran surface in flowcell 2 and 4 was used as a reaction surface. Unmodified carboxymethyl dextran without goat anti-mouse IgG in flow cell 1 and 3 was used as the reference surface. For kinetic analysis, rate equations derived from the 1:1 Langmuir binding model were fitted simultaneously to association and dissociation phases of all eight injections (using global fit analysis) with the use of Biaevaluation 4.0.1 software. Purified antibodies were diluted in HEPES-buffered saline for capture across goat anti-mouse IgG specific reaction surfaces. Mouse antibodies to be captured as a ligand (25 μg/ml) were injected over reaction matrices at a flow rate of 5 μl/min. The association and dissociation rate constants, kₒₙ (unit M⁻¹ s⁻¹) and koff (unit s⁻¹) were determined under a continuous flow rate of 25 μl/min. Rate constants were derived by making kinetic binding measurements at ten different antigen concentrations ranging from 10-200 nM. The equilibrium dissociation constant (unit M) of the reaction between mouse antibodies and recombinant purified human IL-12 p70 or recombinant purified human IL-12 p40 was then calculated from the kinetic rate constants by the following formula: KD=koff/kₒₙ. Binding is recorded as a function of time and kinetic rate constants are calculated.

[3] = biological target: T1, recombinant purified human IL-12 p70; assay: competition ELISA on coated human IL-12, competitor of 0.8 µg/ml biotinylated 8E1, Expt. 2
Experimental: MaxiSorp ELISA plates (Nalge Nunc International) were coated overnight at 4° C. with 100 μl/well of 1.0 μg/ml human IL-12 in 0.2 M sodium carbonate-bicarbonate buffer, pH 9.4, washed with Wash Buffer (PBS containing 0.1% Tween 20), and blocked for 1 hr at room temperature with 300 μl/well of SuperBlock Blocking Buffer in TBS (Pierce Chemical Company). After washing with Wash Buffer, a mixture of biotinylated 8E 1 ([…] final concentration) and competitor antibody (8E1 or 8E1.4 or 8E1.5 or 8E1.6) starting at 100 μg/ml final concentration and serially diluted 3-fold) in 100 μl/well of ELISA buffer was added in duplicate. As isotype controls, 100 μl/well of 100 μg/ml mouse IgG 1/κ (MuFd79) or humanized IgG1/κ (HuFd79) monoclonal antibodies in ELISA buffer was used. As a no-competitor control, 100 μl/well of ELISA Buffer was used. After incubating the plates for 1 hr at room temperature, and washing with Wash Buffer, bound antibodies were detected using 100 μl/well of 1 μg/ml HRP-conjugated streptavidin (Pierce Chemical Company) in ELISA buffer. After incubating for 1 hr at room temperature, and washing with Wash Buffer, color development was performed by adding 100 μl/well of ABTS Peroxidase Substrate/Peroxidase Solution B (KPL, Inc.). […] Absorbance was read at 415 nm.
as §2

[4] = biological target: T1, recombinant purified human IL-12 p70; assay: competition ELISA on coated human IL-12, competitor of 0.8 µg/ml biotinylated 8E1, Expt. 3
Experimental: as §1, §2

[5] = biological target: T1, recombinant purified human IL-12 p70; assay: competition ELISA on coated human IL-12, competitor of 0.8 µg/ml biotinylated 8E1, Expt. 1
Experimental: as §1, §2

B1: additional humanized anti-IL-12 antibody 8E1.6 (antibody, V domains shown)
VH: EVQLVESGGGLVQPGGSLRLSCAASGFTFSDYGMVWVRQAPGKGLEWVASISSGSSNIYYADTVKGRFTISRDDAKNTLYLQMNSLRAEDTAVYYCARNPYWGQGTLVTVSS
VL: DIQMTQSPSSLSASVGDRVTITCKASQNVGTNVAWYQQKPGKAPKGLIYSASHRYSGVPSRFSGSGSGTDFTLTISSLQPEDFATYYCQQYNSYPLTFGGGTKVEIKR
notes: IgG1/kappa, expressed in 293T/17 cells from pVg1.D.Tt (D356E L358M, L234A L235A) and pVk
IC50 [1]: 2.1 mg/L
Kd [2]: 0.046 nM
koff [2]: 8e-05 s⁻¹
kon [2]: 1.7e+06 M⁻¹ s⁻¹
IC50 [3]: 2.43 mg/L
IC50 [4]: 1.61 mg/L
IC50 [5]: 2.25 mg/L

Source: patent US20140178332A1 (published 2014)
